The target of test [1] is recombinant human MASP2 active protease (amino acids 297-686, C-terminal His Tag) (human, UniProt O00187 297-686). Kind of test: cell-based or functional assay.
In test [2] the target is T1, recombinant human MASP1 active protease (amino acids 297-699, C-terminal His Tag) (human, UniProt P48740 297-699).
T1 sequence: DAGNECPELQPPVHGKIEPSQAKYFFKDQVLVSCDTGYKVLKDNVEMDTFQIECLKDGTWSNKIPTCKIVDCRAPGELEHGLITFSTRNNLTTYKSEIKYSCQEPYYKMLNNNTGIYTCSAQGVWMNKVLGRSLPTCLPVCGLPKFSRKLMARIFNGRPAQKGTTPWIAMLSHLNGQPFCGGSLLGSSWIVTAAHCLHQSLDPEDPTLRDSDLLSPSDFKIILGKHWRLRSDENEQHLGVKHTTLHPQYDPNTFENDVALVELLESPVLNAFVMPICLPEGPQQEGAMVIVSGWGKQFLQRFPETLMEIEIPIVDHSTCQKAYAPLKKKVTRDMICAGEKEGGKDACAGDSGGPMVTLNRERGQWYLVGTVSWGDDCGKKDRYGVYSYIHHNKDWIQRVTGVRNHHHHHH
Kind of test: cell-based or functional assay.

Numbered stars: 1 amine (or outer) side, 2 acyl side, 3 side chain; on linkers, the order of the positions; unused ones are H or OH. Bridge positions count the residues as written; N and C are the ends. Square brackets hold non-standard residues; d marks the D form. Ends that are not written are not given here. * marks the point of attachment. (Me)R = N(5)-methyl-L-arginine, CN(CCC[C@H](N[*:1])C(=O)[*:2])C(=N)N; Oic = O=C(O)[C@@H]1C[C@@H]2CCCC[C@@H]2N1; Cyclopentanecarbonyl = O=C(C1CCCC1)*; Hyp = O=C(O)[C@@H]1C[C@@H](O)CN1; tBuAla = CC(C)(C)C[C@H](N)C(=O)O; Pen = CC(C)(S)[C@H](N)C(=O)O; Tle = CC(C)(C)[C@H](N)C(=O)O; NMeC = CN[C@@H](CS)C(=O)O; Orn = NCCC[C@H](N)C(=O)O; Dap = NC[C@H](N)C(=O)O; PEG2 = NCCOCCOCCC(=O)O; Sar = CNCC(=O)O

Sequence of recombinant human MASP2 active protease (amino acids 297-686, C-terminal His Tag) (O00187 other isoform, or with tags, fused parts or gaps limits assumed): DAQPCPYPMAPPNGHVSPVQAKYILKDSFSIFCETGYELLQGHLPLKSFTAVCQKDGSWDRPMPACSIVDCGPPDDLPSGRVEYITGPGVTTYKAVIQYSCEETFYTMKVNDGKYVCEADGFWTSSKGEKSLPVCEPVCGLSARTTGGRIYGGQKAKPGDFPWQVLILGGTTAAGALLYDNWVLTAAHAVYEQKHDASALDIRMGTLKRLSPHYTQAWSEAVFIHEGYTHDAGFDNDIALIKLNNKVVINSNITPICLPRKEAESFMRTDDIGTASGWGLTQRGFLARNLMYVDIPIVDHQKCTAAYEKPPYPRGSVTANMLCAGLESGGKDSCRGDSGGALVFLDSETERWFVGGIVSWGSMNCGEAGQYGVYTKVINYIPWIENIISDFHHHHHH

{(2S,3S)‑2‑(2-Oxopiperazin-1-yl)‑3‑methylpentanoic acid}-CSRSLPPICIPD-OH (disulfide 1-9) [Example 397: ((2S,3S)-2-[2-Oxopiperazin-1-yl]-3-methylpentanoic acid)-C+SRSLPPIC+IPD-OH]: in test [1], the “human MASP2 IC50” value was 3800 nM. Moreover, the “human MASP1 IC50” value in test [2] was found to be 54 nM.

B1: Example 412: ((N-Me)G)-IC+KRS-((tBu)A)-PPI-(Pen)+IP-NH2 (peptide)
peptide: [Sar]ICKRS[tBuAla]PPI[Pen]IP-NH2
modifications: disulfide 3-11; N-terminus assumed
SMILES: CC[C@H](C)[C@H](NC(=O)CNC)C(=O)N[C@H]1CSSC(C)(C)[C@@H](C(=O)N[C@H](C(=O)N2CCC[C@H]2C(N)=O)[C@@H](C)CC)NC(=O)[C@H]([C@@H](C)CC)NC(=O)[C@@H]2CCCN2C(=O)[C@@H]2CCCN2C(=O)[C@H](CC(C)(C)C)NC(=O)[C@H](CO)NC(=O)[C@H](CCCNC(=N)N)NC(=O)[C@H](CCCCN)NC1=O
As for B1, the “human MASP2 IC50” value in test [1] is 5000 nM. For the same molecule, the “human MASP1 IC50” value in test [2] is 77 nM.

B2: Example 413: ((N-Me)G)-IC+SR-(Dap)-LPPIC+IPD-OH (peptide)
peptide: [Sar]ICSR[Dap]LPPICIPD-OH
modifications: disulfide 3-11; N-terminus assumed
SMILES: CC[C@H](C)[C@H](NC(=O)CNC)C(=O)N[C@H]1CSSC[C@@H](C(=O)N[C@H](C(=O)N2CCC[C@H]2C(=O)N[C@@H](CC(=O)O)C(=O)O)[C@@H](C)CC)NC(=O)[C@H]([C@@H](C)CC)NC(=O)[C@@H]2CCCN2C(=O)[C@@H]2CCCN2C(=O)[C@H](CC(C)C)NC(=O)[C@H](CN)NC(=O)[C@H](CCCNC(=N)N)NC(=O)[C@H](CO)NC1=O
As for B2, the “human MASP2 IC50” value in test [1] is 2000 nM. For the same molecule, the “human MASP1 IC50” value in test [2] was determined as 78 nM.

B3: Example 403: AIC+S-((Me)R)-S-((tBu)A)-PPI-(Pen)+IPD-NH2 (peptide)
peptide: AICS[(Me)R]S[tBuAla]PPI[Pen]IPD-NH2
modifications: disulfide 3-11; N-terminus assumed
SMILES: CC[C@H](C)[C@H](NC(=O)[C@H](C)N)C(=O)N[C@H]1CSSC(C)(C)[C@@H](C(=O)N[C@H](C(=O)N2CCC[C@H]2C(=O)N[C@@H](CC(=O)O)C(N)=O)[C@@H](C)CC)NC(=O)[C@H]([C@@H](C)CC)NC(=O)[C@@H]2CCCN2C(=O)[C@@H]2CCCN2C(=O)[C@H](CC(C)(C)C)NC(=O)[C@H](CO)NC(=O)[C@H](CCCN(C)C(=N)N)NC(=O)[C@H](CO)NC1=O
Take B3: the “human MASP2 IC50” value in test [1] came to 740 nM. The “human MASP1 IC50” value in test [2] is 59 nM.

B4: Example 399: (Orn)-AIC+SRS-((tBu)A)-PPI-((N-Me)C)+IPD-NH2 (peptide)
peptide: [Orn]AICSRS[tBuAla]PPI[NMeC]IPD-NH2
modifications: disulfide 4-12; N-terminus assumed
SMILES: CC[C@H](C)[C@H](NC(=O)[C@H](C)NC(=O)[C@@H](N)CCCN)C(=O)N[C@H]1CSSC[C@@H](C(=O)N[C@H](C(=O)N2CCC[C@H]2C(=O)N[C@@H](CC(=O)O)C(N)=O)[C@@H](C)CC)N(C)C(=O)[C@H]([C@@H](C)CC)NC(=O)[C@@H]2CCCN2C(=O)[C@@H]2CCCN2C(=O)[C@H](CC(C)(C)C)NC(=O)[C@H](CO)NC(=O)[C@H](CCCNC(=N)N)NC(=O)[C@H](CO)NC1=O
B4: in test [1], the “human MASP2 IC50” value came out at 520 nM. Besides, in test [2], the “human MASP1 IC50” value is 55 nM.

B5: Example 409: (PEG1(10 atoms))-GIC+SRSLPPIC+IPD-OH (peptide)
peptide: [PEG2]GICSRSLPPICIPD-OH
modifications: disulfide 4-12; N-terminus assumed
SMILES: CC[C@H](C)[C@H](NC(=O)CNC(=O)CCOCCOCCN)C(=O)N[C@H]1CSSC[C@@H](C(=O)N[C@H](C(=O)N2CCC[C@H]2C(=O)N[C@@H](CC(=O)O)C(=O)O)[C@@H](C)CC)NC(=O)[C@H]([C@@H](C)CC)NC(=O)[C@@H]2CCCN2C(=O)[C@@H]2CCCN2C(=O)[C@H](CC(C)C)NC(=O)[C@H](CO)NC(=O)[C@H](CCCNC(=N)N)NC(=O)[C@H](CO)NC1=O
Take B5: the “human MASP2 IC50” value in test [1] turned out to be 570 nM. The “human MASP1 IC50” value in test [2] was found to be 71 nM.

B6: Example 411: AIC+SRS-((tBu)G)-PPI-C+IPD-NH2 (peptide)
peptide: AICSRS[Tle]PPICIPD-NH2
modifications: disulfide 3-11; N-terminus assumed
SMILES: CC[C@H](C)[C@H](NC(=O)[C@H](C)N)C(=O)N[C@H]1CSSC[C@@H](C(=O)N[C@H](C(=O)N2CCC[C@H]2C(=O)N[C@@H](CC(=O)O)C(N)=O)[C@@H](C)CC)NC(=O)[C@H]([C@@H](C)CC)NC(=O)[C@@H]2CCCN2C(=O)[C@@H]2CCCN2C(=O)[C@H](C(C)(C)C)NC(=O)[C@H](CO)NC(=O)[C@H](CCCNC(=N)N)NC(=O)[C@H](CO)NC1=O
B6: the “human MASP2 IC50” value in test [1] turned out to be 2500 nM. For the same molecule, in test [2], the “human MASP1 IC50” value came to 76 nM.

B7: Example 408: (Cyclopentanecarboxylic acid)-IC+SRS-((tBu)A)-PPI-((N-Me)C)+I-NH2 (peptide)
peptide: Cyclopentanecarbonyl-ICSRS[tBuAla]PPI[NMeC]I-NH2
modifications: disulfide 2-10
SMILES: CC[C@H](C)[C@H](NC(=O)[C@@H]1CSSC[C@H](NC(=O)[C@@H](NC(=O)C2CCCC2)[C@@H](C)CC)C(=O)N[C@@H](CO)C(=O)N[C@@H](CCCNC(=N)N)C(=O)N[C@@H](CO)C(=O)N[C@@H](CC(C)(C)C)C(=O)N2CCC[C@H]2C(=O)N2CCC[C@H]2C(=O)N[C@@H]([C@@H](C)CC)C(=O)N1C)C(N)=O
Take B7: the “human MASP2 IC50” value in test [1] was 32 nM. The “human MASP1 IC50” value in test [2] was determined as 69 nM.

B8: Example 405: ((N-Me)G)-(Orn)-(Orn)-(Orn)-IC+SRSLP-(Oic)-I-(Pen)+IP-NH2 (peptide)
peptide: [Sar][Orn][Orn][Orn]ICSRSLP[Oic]I[Pen]IP-NH2
modifications: disulfide 6-14; N-terminus assumed
SMILES: CC[C@H](C)[C@H](NC(=O)[C@H](CCCN)NC(=O)[C@H](CCCN)NC(=O)[C@H](CCCN)NC(=O)CNC)C(=O)N[C@H]1CSSC(C)(C)[C@@H](C(=O)N[C@H](C(=O)N2CCC[C@H]2C(N)=O)[C@@H](C)CC)NC(=O)[C@H]([C@@H](C)CC)NC(=O)[C@@H]2C[C@@H]3CCCC[C@@H]3N2C(=O)[C@@H]2CCCN2C(=O)[C@H](CC(C)C)NC(=O)[C@H](CO)NC(=O)[C@H](CCCNC(=N)N)NC(=O)[C@H](CO)NC1=O
As for B8, the “human MASP2 IC50” value in test [1] turned out to be 980 nM. In addition, the “human MASP1 IC50” value in test [2] is 63 nM.

B9: Example 402: ((N-Me)G)-I-(Pen)+SRSLPPIC+IPD-OH (peptide)
peptide: [Sar]I[Pen]SRSLPPICIPD-OH
modifications: disulfide 3-11; N-terminus assumed
SMILES: CC[C@H](C)[C@H](NC(=O)CNC)C(=O)N[C@@H]1C(=O)N[C@@H](CO)C(=O)N[C@@H](CCCNC(=N)N)C(=O)N[C@@H](CO)C(=O)N[C@@H](CC(C)C)C(=O)N2CCC[C@H]2C(=O)N2CCC[C@H]2C(=O)N[C@@H]([C@@H](C)CC)C(=O)N[C@H](C(=O)N[C@H](C(=O)N2CCC[C@H]2C(=O)N[C@@H](CC(=O)O)C(=O)O)[C@@H](C)CC)CSSC1(C)C
Turning to B9, the “human MASP2 IC50” value in test [1] is 2100 nM. In addition, in test [2], the “human MASP1 IC50” value was determined as 58 nM.

B10: Example 410: GIC+SRSLP-(Hyp)-IC+IPD-OH (peptide)
peptide: GICSRSLP[Hyp]ICIPD-OH
modifications: disulfide 3-11; N-terminus assumed
SMILES: CC[C@H](C)[C@H](NC(=O)CN)C(=O)N[C@H]1CSSC[C@@H](C(=O)N[C@H](C(=O)N2CCC[C@H]2C(=O)N[C@@H](CC(=O)O)C(=O)O)[C@@H](C)CC)NC(=O)[C@H]([C@@H](C)CC)NC(=O)[C@@H]2C[C@@H](O)CN2C(=O)[C@@H]2CCCN2C(=O)[C@H](CC(C)C)NC(=O)[C@H](CO)NC(=O)[C@H](CCCNC(=N)N)NC(=O)[C@H](CO)NC1=O
With B10, the “human MASP2 IC50” value in test [1] was 2700 nM. Further, the “human MASP1 IC50” value in test [2] came to 76 nM.

Turning to Pivalic-ICSRS[tBuAla]PPI[NMeC]I-NH2 (disulfide 2-10) [Example 398: (Pivalic)-IC+SRS-((tBu)A)-PPI-((N-Me)C)+I-NH2], the “human MASP2 IC50” value in test [1] came to 22 nM. In addition, the “human MASP1 IC50” value in test [2] worked out at 54 nM.

(Values after patent US20210246166A1 (Bayer, published 2021).)
